Laboratory results taken from patent publication US20210040174A1.

What was measured:
[1] = molecular target: his-tagged C-terminal fragment from CA125 (UniProt Q8WXI7); experiment: SPR (BiaCore T200): fusion protein captured on Protein A chip, his-tagged C-terminal CA125 fragment as analyte; one MCB domain (MCB domain-1X, SEQ ID: 4)
[2] = molecular target: his-tagged C-terminal fragment from CA125 (UniProt Q8WXI7); experiment: SPR (BiaCore T200): fusion protein captured on Protein A chip, his-tagged C-terminal CA125 fragment as analyte; two MCB domains (MCB domain-2X, SEQ ID: 2)

Row | Kd [1] | Kd [2] | Substance
1 | 0.0652 nM |  | MCB domain-1X fusion protein (single MCB domain of mesothelin linked to the N-terminus of the human IgG1 Fc heavy chain) (Fc fusion)
2 |  | 0.0149 nM | MCB domain-2X fusion protein (two MCB domains of mesothelin linked via a single spacer unit to the N-terminus of the human IgG1 Fc heavy chain) (Fc fusion)
